According to PMC12512739:

Key:
[1] = target: Annexin A2 (endogenous, PK-15 cells) (pig (endogenous in PK-15)) (UniProt P19620)
[2] = target: Annexin A2 (endogenous, PK-15 cells) (pig (endogenous in PK-15)) (UniProt P19620); remark: listed apart in the source
[3] = target: Porcine circovirus type 2 (PCV2) virus particles (capsid of Cap) (porcine circovirus type 2 (genotype 2d, strain ChenZ-2-1))
[4] = target: PCV2 virus-like particles (VLPs) assembled from the capsid protein (Cap) (porcine circovirus type 2 (genotype 2d, strain ChenZ-2-1))

Sequence of UniProt P19620 (P19620 whole entry): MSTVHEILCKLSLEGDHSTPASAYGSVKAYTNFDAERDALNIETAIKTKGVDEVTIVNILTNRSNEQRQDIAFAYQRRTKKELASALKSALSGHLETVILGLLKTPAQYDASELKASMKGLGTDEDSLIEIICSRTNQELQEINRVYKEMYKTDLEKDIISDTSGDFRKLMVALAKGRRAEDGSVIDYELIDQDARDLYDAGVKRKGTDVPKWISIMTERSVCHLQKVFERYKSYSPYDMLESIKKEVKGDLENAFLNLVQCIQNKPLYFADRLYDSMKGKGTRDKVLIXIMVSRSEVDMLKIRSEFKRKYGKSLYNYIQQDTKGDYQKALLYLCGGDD

| Substance | decrease in PCV2 infectivity by IFA (Cap fluorescence) in PK-15 cells pretreated with ANXA2-specific polyclonal antibody, against control cells [1] | reduction of viral genome copies in PK-15 cells at 36 hpi (qPCR) after pretreatment of the cells with anti-ANXA2 polyclonal antibody at 10 and 30 μg/mL [1] | reduction of PCV2 particles attached to PK-15 cells at 4 °C (qPCR) after pretreatment of the cells with ANXA2-specific antibody (30 μg/mL) [2] | inhibition of PCV2 attachment to PK-15 cells at 4 °C (bound virus by qPCR) after preincubation of PCV2 with rANXA2 (20 μg/mL); blocks PCV2 and cell surface ANXA2 [3] | decrease of PCV2 VLP binding to PK-15 cells at 4 °C (immunofluorescence with anti-Cap antibody, fluorescence intensity) after preincubation of VLPs with rANXA2 (20 μg/mL) [4] |
| --- | --- | --- | --- | --- | --- |
| Porcine circovirus type 2 (PCV2) virus particles (capsid of Cap) (complex) | 30% | 42.7% | 25.2% | – | – |
| recombinant soluble full-length porcine ANXA2 with an N-terminal His-tag (pET-28a(+)) (from UniProt P19620 1-339) (natural protein) | – | – | – | 32.7% | 19.4% |
